Test: yeast display, Sf9 membrane polyspecificity reagent, FACS + sequencing; frameworks hold sequencing errors
Outline: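 After 36–48 hours of galactose induction, yeast (Saccharomyces cerevisiae BJ5465) displaying a synthetic nanobody library were stained at 4 °C for 1 hour with 10% biotinylated, detergent-solubilized Sf9 membrane reagent. Streptavidin microbeads enriched the stained cells before FACS sorting into low and high (top ~1%) gates on anti-HA and streptavidin fluorescence. Each clone's polyreactivity label reflects its gate of origin.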

Row | Sequence | polyreactivity (PSR sort gate)
1 | QVQLVESGGGLFQAGGSLRLSCAASGSTFRFNAMGWYRQAPGKERELVAAISRSGGTTYYADSVKGRFTISRDNAKNTVYLQMNSLKPEDTAVYYCNAQWWRYWPSQVIFDYWGQGTQVTVSS | high polyreactivity
2 | QVQLVESGGGLFQAGGSLRLSCAASGSTFVWYAMGWYRQAPGKEREFVAANTNSGGSTYYADSVKGRFTISRDTAKNTVYLQMNILKPEDTAVYYCAAQSYYFSYHYDYWGQGTQVTVSS | low polyreactivity
3 | QVQLVESGGGLFQAGGSLRLSCAASGSTFYIYAMGWYRHAPGKERELVARITRGGTTYADSVKGRFTISRDNAKNTVYLQMNSLKPEDTAVYYCNAYISDDRYWSPAIEEDYWGQGTQVTVSS | high polyreactivity
4 | QVQLVESGGGLFQAGGSLRLSCAASGSTSRYPMGWYRQAQGQERELVAAITRSGGTTYYADSVKGRFTISRDNAKNTVYLQMYSLKPEDTAVYYCATSDRQVKYDYWGQGTQVTVSS | low polyreactivity
5 | QVQLVESGGGLFQAGGSLRLSCAASGTFYIYAMGWYRQAPGKERELVAGISFSGGSTYYADSVKGRFTISRDNAKNTVYLQMNSLKPEDTAVYYCAAELYVLPYDYWGQGTQVTVSS | high polyreactivity
6 | QVQLVESGGGLFQAGGSLRLSCAPSGRISNKYAMGWYRQAPGKERELVAAISYSGGTTYYADSVKGRFTISRDNAKNTVYLQMNSLKPEDTAGYYCAREWTKGYGYYWGYYWGQGTQVTASS | low polyreactivity
7 | QVQLVESGGGLFQAGGSLRLSCAPSGSIFQYNAMGWYRQAPGKERELVAAINRRGTRTYYADSVKGRFTISRDNAKNTVYLQMNSLKPEDTAVYYCNKYQSTDVRSSYSAGYGYWGQGTQVTVSS | high polyreactivity
8 | QVQLVESGGGLFQAGGSLRLSCAPSGSNFSIYAMGWYRQAPGKERELVAAITWGGGSTYYADSVKGRFTISRDNAKNTVYLQMNSLKPEETAVYDCAADSLTWYGTYYYWGQGTQVTVSS | high polyreactivity
9 | QVQLVESGGGLFQAGGSLRLSCSASGFIFRGYAMGWSRQAPGKERELVAAISTGGGRTYYADSVKGRFTISRDNAKNTVYLQMNSLKPEDTAVYYCNRLSYTQVLMDYWGQGTQVTVSS | high polyreactivity
10 | QVQLVESGGGLFQAGGSLRLSSAASGIIFGYYSLGWYRQAPGKERELVAAINQDGSSTYYADSVKGRFTISRDNAKNTVYLQMNSLNPEDTAVYYCNARGVPRQDDRMGYWGQGTQVTVSS | low polyreactivity
11 | QVQLVESGGGLFQAGGSLRLSSAASGIIFSTYAMGWYRQAHGKERELVAAITSTGSTNYADSVKGRFTISRDNAKNTVYLQMNSLKPEDTAVYYCAAEGHTAFLVYRVSPLQYDYWGQGTQVTVSS | low polyreactivity
12 | QVQLVESGGGLFQAGVSLTLSFAASGSIFDINAMGWYRQEPWKETDLVAAIRSGDRTHYADSVKGRFTISRDNAMNTVYLQMNSLIPEDTAVYYCAADRFIYLNRELDYWGQGTQVTVSS | low polyreactivity
13 | QVQLVESGGGLFQEGGSLRLSCAASGSTFPSYAMGWYRQAPGKERELVAAINSGGGTNYADSVKGRFTISRDNAKNTVYLQMNSLKADDTEVYYCAKSRYDYTKSEGGYWGQGTQVTVSS | low polyreactivity
14 | QVQLVESGGGLFRAGGSLRLICAASGITFYGYAMGWYRQAPGKERELVAAITWSGGRTYYADSVKGRFTISRDNAKNTVYLQMNSMKPEDTAVYYCARRTWHSVGYWGQGTQVTVSS | high polyreactivity
15 | QVQLVESGGGLGQAGGRLRLTCAASGFTFRPYDMGWYRQAPGKERELVAVIIGGDSTNYADSVQGRFTISRDNAKNTVYLQMNSLKPEDTAVYYCAADYIDRVGWMDYWGQGTQVTVSS | low polyreactivity
16 | QVQLVESGGGLGQAGGSLLLSCAASGRIFWCNAMGWTRQAPGKERELVAAIRWSGGSTYYADSVKGRFTISRDNAKNTVYLQMNSLKPEDTAVYYCAASPYWSDWTKVDSWGQGTQVTVSS | low polyreactivity
17 | QVQLVESGGGLGQAGGSLRLSCAASGFIFQANAMGWYRQAPGKERELVAAIDDGDSTYADSVKGRFTISRDNAKNTVYLQMNSLKPEDTAVSYCAPRRNRSYDYWGQGTQVTVSS | low polyreactivity
18 | QVQLVESGGGLGQAGGSLRLSCAASGFTFVYYAMGWYRPAPGKERELVAAISSRGGSTNYADSVKGRFTISRDNAKNTVYLQMNSLKPEDTAVYYCATYFSIQRRGDYWGQGTQVTVSS | high polyreactivity
19 | QVQLVESGGGLGQAGGSLRLSCAASGGTFYAYAMGWYRQAPGKEREFVAAISRRGGSTYYADSVKGRFTISRDNAKNTVYLQMHSLKPEDNAVYYCKALYSSSPGAKPWGEYNYWGQGTQVTVSS | high polyreactivity
20 | QVQLVESGGGLGQAGGSLRLSCAASGLIIQPNAMGWYSPAPGKERELVAAISSSDGSTYYADSVKGRFTISRDNAKNTVYLQMNSLKREDSAVYYCAAGYYFQVEPDLVYIYSYEYWGQGTHVTVSS | low polyreactivity
21 | QVQLVESGGGLGQAGGSLRLSCAASGRIFFHYAMGWYRPAPGKERELVATITTVGSTYYADSVKGRFTISRDNAKNTVYLQMNSLKPEDTAVYYCAARYISLSGDEYDYWGQGTQVTVSS | low polyreactivity
22 | QVQLVESGGGLGQAGGSLRLSCAASGRTFYDNAMGWYRPAPGKERELVAAISSSGSSTYYADSVKGRFTISLDNAKNTVYLQKNSLKPEDTAVYYCSASYTDYYFGFGTDVRYGYWGQGTQVTVSS | high polyreactivity
